# Laboratory results from patent US20260207704A1, “STAPLED PEPTIDES AND METHODS THEREOF” (priority 2022, published 2026).
# *1 amine or outer side, *2 acyl side, *3 side chain or, on linkers, in order; H or OH if unused. Bridges are numbered along the chain shown (N, C = ends). Primed or numbered codes have the meaning given here. [ ]: non-standard residue; d: D form. B5(4) = 2-amino-2-(pent-4-en-1-yl)hept-6-enoic acid, stapled through each of its two olefin groups with other olefin-containing amino acid residues, O=C(C(CCCC=[*:3])(CCCC=[*:4])N[*:1])[*:2]; PyrS2″ = (S)-3-amino-1-((pent-4-en-1-yloxy)carbonyl)pyrrolidine-3-carboxylic acid (olefin stapling residue), C=CCCCOC(=O)N1CC[C@@](N[*:1])(C(=O)[*:2])C1; PyrS2(3) = (S)-3-amino-1-((pent-4-en-1-yloxy)carbonyl)pyrrolidine-3-carboxylic acid, olefin residue, C=CCCCOC(=O)N1CC[C@@](N[*:1])(C(=O)[*:2])C1; PyrS2(5) = (S)-3-amino-1-((pent-4-en-1-yloxy)carbonyl)pyrrolidine-3-carboxylic acid, C=CCCCOC(=O)N1CC[C@@](N[*:1])(C(=O)[*:2])C1; B5″ = 2-amino-2-(pent-4-en-1-yl)hept-6-enoic acid (bis-olefin stapling residue), C=CCCCC(CCCC=C)(N[*:1])C(=O)[*:2]; B5(3) = 2-amino-2-(pent-4-en-1-yl)hept-6-enoic acid, two olefin arms, C=CCCCC(CCCC=C)(N[*:1])C(=O)[*:2]; 2F3MeF(3) = aromatic amino acid residue, Cc1cccc(C[C@H](N[*:1])C(=O)[*:2])c1F; 2F3MeF″ = aromatic residue, Cc1cccc(C[C@H](N[*:1])C(=O)[*:2])c1F; Phe(3-COOH) = N[C@@H](Cc1cccc(C(=O)O)c1)C(=O)O; 2F3MeF = Cc1cccc(C[C@H](N[*:1])C(=O)[*:2])c1F; Bta = N[C@@H](Cc1csc2ccccc12)C(=O)O; αAllylPro = C=CC[C@@]1(C(=O)O)CCCN1; BztA = aromatic amino acid residue; tBuAla = CC(C)(C)C[C@H](N)C(=O)O; 3Thi = N[C@@H](Cc1ccsc1)C(=O)O; Cha = N[C@@H](CC1CCCCC1)C(=O)O; PyrS2(4) = not defined here; Nle = CCCC[C@H](N)C(=O)O; TfeGA = not defined here; GlnR = not defined here; PL3 = not defined here; B5 = not defined here; Aib = CC(C)(N)C(=O)O
# B1: I-97 (peptide)
# peptide: Ac-[PL3]D[Cha][B5]D[Phe(3-COOH)]AAFK[PyrS2″][2F3MeF(3)][BztA][GlnR]A-NH2
# modifications: staple 1-4 (inferred); bridge 10-14; not fully specified (residue 10, bridges); printed as Ac-PL3-Asp-Cha-B5-Asp-3COOHF-Ala-Ala-Phe-Lys*3-PyrS2-2F3MeF-BztA-GlnR*3-Ala-NH2; reading uncertain; also: Lys10 and GlnR14 marked *3
# B2: I-71 (peptide)
# peptide: Ac-[αAllylPro]D[tBuAla][B5(3)]D[Phe(3-COOH)][Nle]AFK[PyrS2(3)][2F3MeF″][Bta][GlnR]A-NH2
# modifications: bridge 10-14; not fully specified (bridges); printed as Ac-PL3-Asp-Npg-B5-Asp-3COOHF-nLeu-Ala-Phe-Lys*3-PyrS2-2F3MeF-BztA-GlnR*3-Ala-NH2; reading uncertain
# B3: I-104 (peptide)
# peptide: Ac-[PL3]D[tBuAla][B5]D[Phe(3-COOH)]AAFK[PyrS2(4)][2F3MeF][Bta][GlnR]L-NH2
# modifications: staple 1-4; bridge 10-14; not fully specified (residue 10); printed as Ac-PL3-Asp-Npg-B5-Asp-3COOHF-Ala-Ala-Phe-Lys*3-PyrS2-2F3MeF-BztA-GlnR*3-Leu-NH2; reading uncertain; also: PyrS2 tied into a staple, partner not placed
# B4: I-68 (peptide)
# peptide: Ac-[αAllylPro]D[tBuAla][B5(3)]D[Phe(3-COOH)][Aib]AFK[PyrS2(3)][2F3MeF″][Bta][GlnR]A-NH2
# modifications: bridge 10-14; not fully specified (bridges); printed as Ac-PL3-Asp-Npg-B5-Asp-3COOHF-Aib-Ala-Phe-Lys*3-PyrS2-2F3MeF-BztA-GlnR*3-Ala-NH2; reading uncertain
# B5: I-64 (peptide)
# peptide: Ac-[αAllylPro]D[tBuAla][B5(3)]D[Phe(3-COOH)]AAFK[PyrS2(3)][3Thi][Bta][GlnR]-Prool
# modifications: bridge 10-14; not fully specified (bridges); printed as Ac-PL3-Asp-Npg-B5-Asp-3COOHF-Ala-Ala-Phe-Lys*3-PyrS2-3Thi-BztA-GlnR*3-Prool; reading uncertain
# B6: I-120 (peptide)
# peptide: Ac-[αAllylPro]D[tBuAla][B5″]D[TfeGA][Aib]AFK[PyrS2″][2F3MeF][Bta][GlnR]A-NH2
# modifications: bridge 10-14; not fully specified (bridges); reading uncertain; also: Lys*3 and GlnR*3 marked *3
# B7: I-121 (peptide)
# peptide: Ac-[αAllylPro]D[tBuAla][B5(4)]D[TfeGA][Aib]AFK[PyrS2(5)][2F3MeF][Bta][GlnR]A-NH2
# modifications: bridge 10-14; not fully specified (bridges); reading uncertain; also: Lys*3 and GlnR*3 marked *3
# B8: I-101 (peptide)
# peptide: Ac-[PL3]D[tBuAla][B5]D[Phe(3-COOH)][Cha]AFK[PyrS2(4)][2F3MeF][Bta][GlnR]A-NH2
# modifications: staple 1-4; bridge 10-14; not fully specified (residue 10); printed as Ac-PL3-Asp-Npg-B5-Asp-3COOHF-Cha-Ala-Phe-Lys*3-PyrS2-2F3MeF-BztA-GlnR*3-Ala-NH2; reading uncertain; also: PyrS2 tied into a staple, partner not placed
# B9: I-1 (peptide)
# peptide: Ac-[PL3]DL[B5]DDAAFK[PyrS2(4)][3Thi][Bta][GlnR]-NH2
# modifications: staple 1-4; bridge 10-14; not fully specified (residue 10); printed as Ac-PL3-Asp-Leu-B5-Asp-Asp-Ala-Ala-Phe-dLys*3-PyrS2-3Thi-BztA-GlnR*3-NH2; reading uncertain; also: PyrS2 tied into a staple, partner not placed
# B10: I-106 (peptide)
# peptide: Ac-[PL3]D[Cha][B5]D[Phe(3-COOH)]AAFK[PyrS2(4)][2F3MeF][Bta][GlnR]L-NH2
# modifications: staple 1-4; bridge 10-14; not fully specified (residue 10); printed as Ac-PL3-Asp-Cha-B5-Asp-3COOHF-Ala-Ala-Phe-Lys*3-PyrS2-2F3MeF-BztA-GlnR*3-Leu-NH2; reading uncertain; also: PyrS2 tied into a staple, partner not placed
# B11: I-73 (peptide)
# peptide: XDXXDXTAFKXXXQA
# modifications: not fully specified; Ac-PL3-Asp-Npg-B5-Asp-3COOHF-Thr-Ala-Phe-Lys*3-PyrS2-2F3MeF-BztA-GlnR*3-Ala-NH2
# B12: I-72 (peptide)
# peptide: Ac-[αAllylPro]D[tBuAla][B5(3)]D[Phe(3-COOH)]TAFK[PyrS2(3)][3Thi][Bta][GlnR]A-NH2
# modifications: bridge 10-14; not fully specified (bridges); printed as Ac-PL3-Asp-Npg-B5-Asp-3COOHF-Thr-Ala-Phe-Lys*3-PyrS2-3Thi-BztA-GlnR*3-Ala-NH2; reading uncertain
# Target: beta-catenin (human)
# Experiment: cell-based or functional assay
# Settings: not given
# Chain of beta-catenin (human) (B6V8E6 146-665 limits assumed): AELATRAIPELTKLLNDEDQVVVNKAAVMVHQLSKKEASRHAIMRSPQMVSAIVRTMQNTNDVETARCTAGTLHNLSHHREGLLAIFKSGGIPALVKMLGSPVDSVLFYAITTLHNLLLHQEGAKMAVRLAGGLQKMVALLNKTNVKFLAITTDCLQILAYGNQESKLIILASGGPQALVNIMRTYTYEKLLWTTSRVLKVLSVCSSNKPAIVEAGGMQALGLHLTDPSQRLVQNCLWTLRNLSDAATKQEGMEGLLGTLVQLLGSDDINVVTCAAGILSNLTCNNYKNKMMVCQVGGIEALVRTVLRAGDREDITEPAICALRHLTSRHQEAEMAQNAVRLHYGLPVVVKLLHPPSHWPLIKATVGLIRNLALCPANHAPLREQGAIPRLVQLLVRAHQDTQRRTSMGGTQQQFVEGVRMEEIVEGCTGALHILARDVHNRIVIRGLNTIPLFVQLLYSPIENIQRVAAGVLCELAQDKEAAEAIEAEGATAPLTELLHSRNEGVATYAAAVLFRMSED
NanoBRET Abs IC50 (bin >1.5 uM),NanoBRET Abs IC50,Molecule
< 3000 nM,,B1
< 3000 nM,,B2
< 3000 nM,,B3
< 3000 nM,,B4
< 3000 nM,,B5
< 3000 nM,,B6
< 3000 nM,,B7
< 3000 nM,,B8
,> 10000 nM,B9
< 3000 nM,,B10
< 3000 nM,,B11
< 3000 nM,,B12

# Target: beta-catenin (human)
# Experiment: fluorescence polarization
# Settings: not given
row,IC50,Molecule
1,< 50 nM,B1
2,< 50 nM,B2
3,< 50 nM,B3
4,< 50 nM,B4
5,< 50 nM,B5
6,< 50 nM,B6
7,< 50 nM,B7
8,< 50 nM,B8
9,< 50 nM,B9
10,< 50 nM,B10
11,< 50 nM,B11
12,< 50 nM,B12

# Test system: DLD1 reporter
# Experiment: reporter assay (DLD1 reporter assay)
# Assay type: cell-based
# Settings: read-out: DLD1 4% Abs IC50; DLD1 4%
# Text: Various technologies can be utilized for characterizing and/or assessing provided technologies (e.g., agents (e.g., various peptides), compositions, methods, etc.) in accordance with the present disclosure. As described herein, in some embodiments, a useful technology is or comprises fluorescence polarization. In some embodiments, a useful technology assesses LogP or LogD. In some embodiments, a useful technology is or comprises a CHI LogD assay. In some embodiments, a useful technology assesses solubility. In some embodiments, a useful technology is or comprises NanoBRET. In some embodiments, a useful technology is or comprises a reporter assay (e.g., DLD1 reporter assay). In some embodiments, a useful technology is or comprises alphascreen. Certain useful protocols are described in the Examples. Those skilled in the art appreciate that suitable adjustments may be made to such protocols, e.g., according to specific conditions, agents, purposes, etc.
# Various technologies can be utilized to assess technologies of the present disclosure. For example, in some embodiments, solubility, LogD, interactions with targets, etc. of various agents such as stapled peptides were assessed using technologies described in WO 2022/261257 (e.g., those in its Examples). In some embodiments, solubility, shake flask LogD, and binding to beta-catenin were assessed. In some embodiments, an assay for assessing interactions, e.g., with beta-catenin, was fluorescence polarization as described in WO 2022/261257. In some embodiments, an assay was Nano-BRET target engagement assay that assessed beta-catenin/TCF4 engagement as described in WO 2022/261257. In some embodiments, an assay was a reporter assay as reported in Example 4 of WO 2022/261257. In some embodiments, an assay was a COLO320DM proliferation assay as reported in Example 4 of WO 2022/261257.
row,Molecule,IC50
1,"CC(=O)N1CCC[C@]12CC=CCCCC1(CCCC=CCCCOC(=O)N3CC[C@@]4(C3)NC(=O)[C@H](CCCCNC(=O)CC[C@@H](C(=O)N[C@@H](CC(C)C)C(=O)N[C@@H](CO)C(N)=O)NC(=O)[C@H](Cc3csc5ccccc35)NC(=O)[C@H](Cc3ccccc3C(F)(F)F)NC4=O)NC(=O)[C@H](Cc3ccccc3)NC(=O)[C@H](C)NC(=O)[C@H](C)NC(=O)[C@H](Cc3cccc(C(=O)O)c3)NC(=O)[C@H](CC(=O)O)NC1=O)NC(=O)[C@H](CC(C)(C)C)NC(=O)[C@H](CC(N)=O)NC2=O (relative stereo) [I-142, Ac-PL3-Asn-Npg-B5-Asp-3COOHF-Ala-Ala-Phe-Lys*3-PyrS2-2F3MeF-BztA-GlnR*3-Leu-Ser-NH2]",> 5000 nM
2,"CC(=O)N1CCC[C@]12CC=CCCCC1(CCCC=CCCCOC(=O)N3CC[C@@]4(C3)NC(=O)[C@H](CCCCNC(=O)CC[C@@H](C(=O)N[C@@H](CC(C)C)C(=O)N[C@@H](CO)C(N)=O)NC(=O)[C@H](Cc3csc5ccccc35)NC(=O)[C@H](Cc3ccccc3C(F)(F)F)NC4=O)NC(=O)[C@H](Cc3ccccc3)NC(=O)[C@H](C)NC(=O)C3(CCC3)NC(=O)[C@H](Cc3cccc(C(=O)O)c3)NC(=O)[C@H](CC(=O)O)NC1=O)NC(=O)[C@H](CC(C)(C)C)NC(=O)[C@H](CC(=O)O)NC2=O (relative stereo) [I-140, Ac-PL3-Asp-Npg-B5-Asp-3COOHF-Cbg-Ala-Phe-Lys*3-PyrS2-2F3MeF-BztA-GlnR*3-Leu-Ser-NH2]",≤ 1000 nM
3,"CC(=O)N1CCC[C@]12CC=CCCCC1(CCCC=CCCCOC(=O)N3CC[C@@]4(C3)NC(=O)[C@H](CCCCNC(=O)CC[C@@H](C(=O)N[C@@H](CC(C)C)C(N)=O)NC(=O)[C@H](Cc3csc5ccccc35)NC(=O)[C@H](Cc3ccccc3C(F)(F)F)NC4=O)NC(=O)[C@H](Cc3ccccc3)NC(=O)[C@H](C)NC(=O)[C@H](CC(C)(C)C)NC(=O)[C@H](Cc3cccc(C(=O)O)c3)NC(=O)[C@H](CC(=O)O)NC1=O)NC(=O)[C@H](CC(C)(C)C)NC(=O)[C@H](CC(=O)O)NC2=O (single isomer, unassigned) [I-109, Ac-PL3-Asp-Npg-B5-Asp-3COOHF-Npg-Ala-Phe-Lys*3-PyrS2-2F3MeF-BztA-GlnR*3-Leu-NH2]",1000 to 5000 nM

# Same assay, conditions: read-out: DLD1 4% Abs IC50; DLD1 reporter, 4%
row,Molecule,IC50
1,"CC(=O)N1CCC[C@]12CC=CCCCC1(CCCC=CCCCOC(=O)N3CC[C@@]4(C3)NC(=O)[C@H](CCCCn3cc(nn3)C[C@@H](C(=O)N[C@@H](C)C(N)=O)NC(=O)[C@H](Cc3csc5ccccc35)NC(=O)[C@H](Cc3ccsc3)NC4=O)NC(=O)[C@H](Cc3ccccc3)NC(=O)[C@H](C)NC(=O)[C@H](C)NC(=O)[C@H](Cc3cccc(C(=O)O)c3)NC(=O)[C@H](CC(=O)O)NC1=O)NC(=O)[C@H](CC(C)(C)C)NC(=O)[C@H](CC(=O)O)NC2=O (stereo partly drawn) [I-337, Ac-PL3-Asp-Npg-B5-Asp-3COOHF-Ala-Ala-Phe-TriAzLys*3-PyrS2-3Thi-BztA-sAla*3-Ala-NH2]",≤ 1000 nM
